Reference: article PMC8982864 (PLoS Biology, 2022)

Legend:
Test in all cases: ELISA
[1] = target: CSPG4 domain 1 fragment D1_(401-560) with C-terminal GFP tag (UniProt Q6UVK1)
[2] = target: truncated wild-type TcdB (residues 550-1902) (Clostridioides difficile (VPI 10463 …, UniProt P18177 550-1902)); details: both partners purified
[3] = target: full-length Clostridioides difficile Toxin B (TcdB), C-terminal 6XHis-tag (Clostridioides difficile (VPI 10463 …, UniProt P18177 1-2366)); details: both partners purified

Molecule	binding result [3]	also measured
truncated TcdB (550-1902) [change] (from UniProt P18177 550-1902) (domain or fragment)		fold reduction of binding against wild type [1]: 1 fold
CSPG4 domain 1 fragment D1_(401-560) with C-terminal GFP tag (domain or fragment, UniProt Q6UVK1 401-560, looked up, not shown: GFP, C-terminal, kept) LAPEAWPAMELPEPCVPEPGLPPVFANFTQLLTISPLVVAEGGTAWLEWRHVQPTLDLMEAELRKSQVLFSVTRGARHGELELDIPGAQARKMFTLLDVVNRKARFIHDGSEDTSDQLVLEVSVTARVPMPSCLRRGQTYLLPIQVNPVNDPPHIIFPHG		binding result [2]: binds
D1_(401-560) D457A, C-terminal GFP tag (domain or fragment, not shown: GFP, C-terminal, kept) LAPEAWPAMELPEPCVPEPGLPPVFANFTQLLTISPLVVAEGGTAWLEWRHVQPTLALMEAELRKSQVLFSVTRGARHGELELDIPGAQARKMFTLLDVVNRKARFIHDGSEDTSDQLVLEVSVTARVPMPSCLRRGQTYLLPIQVNPVNDPPHIIFPHG	binds	
D1_(401-560) E460A, C-terminal GFP tag (domain or fragment, not shown: GFP, C-terminal, kept) LAPEAWPAMELPEPCVPEPGLPPVFANFTQLLTISPLVVAEGGTAWLEWRHVQPTLDLMAAELRKSQVLFSVTRGARHGELELDIPGAQARKMFTLLDVVNRKARFIHDGSEDTSDQLVLEVSVTARVPMPSCLRRGQTYLLPIQVNPVNDPPHIIFPHG	binds	
